The source of these data is PMC6533540, “DprA Is Essential for Natural Competence in Riemerella anatipestifer and Has a Conserved Evolutionary Mechanism”.

In the data set the target is T1, DprA (DprARa) (Riemerella anatipestifer ATCC11845, UniProt E4TBU2 1-367).
T1 sequence: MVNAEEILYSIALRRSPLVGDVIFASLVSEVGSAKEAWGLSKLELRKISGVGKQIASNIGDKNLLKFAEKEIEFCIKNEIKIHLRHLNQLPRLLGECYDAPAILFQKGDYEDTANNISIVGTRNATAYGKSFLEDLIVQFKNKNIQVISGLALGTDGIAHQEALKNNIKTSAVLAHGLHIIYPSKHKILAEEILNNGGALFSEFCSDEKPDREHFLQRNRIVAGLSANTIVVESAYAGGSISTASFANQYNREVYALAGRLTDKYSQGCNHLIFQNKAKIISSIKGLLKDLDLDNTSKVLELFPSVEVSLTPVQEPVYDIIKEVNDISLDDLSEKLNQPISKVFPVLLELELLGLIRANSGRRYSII
The experiment in a line: EMSA; 1-20 uM DprA; 25 mM HEPES pH 7.0, 150 mM NaCl, 10% glycerol, 1 mM DTT, 0.05% IGEPAL, 30 min at 30 C; 8% native PAGE in 0.5x TBE on ice. The following applies: protein: recombinant, tags: C-terminal His6, chain copies: 2, label: biotin.

As to TAGGCTCTGCTAAGGAAGCGTGGGGTCTGTCTAAGTTGGA (ssDNA) [RA-ssDNA1], the binding result is “binds”.

B1: dsDNA annealed from RA-ssDNA1 (dsDNA)
DNA 1: TAGGCTCTGCTAAGGAAGCGTGGGGTCTGTCTAAGTTGGA
DNA 2: TCCAACTTAGACAGACCCCACGCTTCCTTAGCAGAGCCTA
For B1, the binding result (blunt) is listed as “binds”.

Consider AAAAACTACGGAACTGACTAAAGGCAGAAAAACTAAACGG (ssDNA) [RA-ssDNA2], for which the binding result was “binds”.
